Paper PMC11774805, “The C-terminal α-helix is crucial for the activity of the bacterial ABC transporter BmrA” (The Journal of Biological Chemistry, 2024)
Changes are numbered by the printed parent chain.

B1: Bacillus multidrug resistance ATP (BmrA) wt, full-length half-transporter (natural protein, Bacillus subtilis strain 168, UniProt O06967 1-589, looked up)
chain: MPTKKQKSKSKLKPFFALVRRTNPSYGKLAFALALSVVTTLVSLLIPLLTKQLVDGFSMSNLSGTQIGLIALVFFVQAGLSAYATYALNYNGQKIISGLRELLWKKLIKLPVSYFDTNASGETVSRVTNDTMVVKELITTHISGFITGIISVIGSLTILFIMNWKLTLLVLVVVPLAALILVPIGRKMFSISRETQDETARFTGLLNQILPEIRLVKASNAEDVEYGRGKMGISSLFKLGVREAKVQSLVGPLISLVLMAALVAVIGYGGMQVSSGELTAGALVAFILYLFQIIMPMGQITTFFTQLQKSIGATERMIEILAEEEEDTVTGKQIENAHLPIQLDRVSFGYKPDQLILKEVSAVIEAGKVTAIVGPSGGGKTTLFKLLERFYSPTAGTIRLGDEPVDTYSLESWREHIGYVSQESPLMSGTIRENICYGLERDVTDAEIEKAAEMAYALNFIKELPNQFDTEVGERGIMLSGGQRQRIAIARALLRNPSILMLDEATSSLDSQSEKSVQQALEVLMEGRTTIVIAHRLSTVVDADQLLFVEKGEITGRGTHHELMASHGLYRDFAEQQLKMNADLENKAG
notes: BmrA, ABC half-transporter of Bacillus subtilis strain 168, full length (last residue G589); Cloned into pET303-CT/His; source: E. coli, purified in presence of detergent (DDM)
B2: BmrA D583C (natural protein, Bacillus subtilis strain 168, UniProt O06967 1-589, looked up)
chain: B1 chain with D583C
notes: BmrA of Bacillus subtilis strain 168, full length, D583 replaced by Cys; Forms a disulfide-linked dimer without DTT; source: E. coli, purified in presence of detergent (DDM)
B3: BmrA K579C (natural protein, Bacillus subtilis strain 168, UniProt O06967 1-589, looked up)
chain: B1 chain with K579C
notes: BmrA of Bacillus subtilis strain 168, full length, K579 replaced by Cys; Forms a disulfide-linked dimer without DTT; source: E. coli, purified in presence of detergent (DDM)
B4: BmrA M580C (natural protein, Bacillus subtilis strain 168, UniProt O06967 1-589, looked up)
chain: B1 chain with M580C
notes: BmrA of Bacillus subtilis strain 168, full length, M580 replaced by Cys; Forms a disulfide-linked dimer without DTT; source: E. coli, purified in presence of detergent (DDM)
B5: BmrA N581C (natural protein, Bacillus subtilis strain 168, UniProt O06967 1-589, looked up)
chain: B1 chain with N581C
notes: BmrA of Bacillus subtilis strain 168, full length, N581 replaced by Cys; Forms a disulfide-linked dimer without DTT; source: E. coli, purified in presence of detergent (DDM)
B6: BmrA A582C (natural protein, Bacillus subtilis strain 168, UniProt O06967 1-589, looked up)
chain: B1 chain with A582C
notes: BmrA of Bacillus subtilis strain 168, full length, A582 replaced by Cys; Forms a disulfide-linked dimer without DTT; source: E. coli, purified in presence of detergent (DDM)

Target: the molecule itself
Assay: cross-linking + native gel or EMSA; blue native PAGE of purified BmrA wt and Cys variants; 0.25 mg/ml preincubated ± 100 uM DTT for 30 min at room temperature, then DDM to 1%; no ATP; 4 to 16% Bis-Tris gel; dimer to monomers

| Protein | stoichiometry N |
| --- | --- |
| B1 | 2 |
| B2 | 2 |
| B3 | 2 |
| B4 | 2 |
| B5 | 2 |
| B6 | 2 |
